Measurements as given in patent publication US20050037965A1.

Biological target: human p21-activated kinase 1 (PAK1) (human) (UniProt Q13153)
Test: cell-based or functional assay

inhibition of IL-1β induced expression of PGE2 in SW1353 cells (ELISA of supernatants): > 50%
inhibition of IL-1β-induced expression of MMP13 in SW1353 cells (ELISA of supernatants): 55%
inhibition of basal MMP13 expression in non-stimulated SW1353 cells (ELISA of supernatants): > 80%
Substance: PAK1 inhibitory domain (PAK1-ID), HA-tagged PAK1 residues 83 to 149
